Data as given in article PMC12459405, “From disorder to icosahedral symmetry: How conformation-switching subunits enable RNA virus assembly” (Science Advances, 2025).

Biological target: the molecule itself
Assay: cryo-TEM + other: SAXS; in vitro assembly: purified CCMV capsid proteins mixed with in vitro transcribed RNA (C2, 2767 nt, or RF2, 2687 nt) and dialysed overnight against 0.1 M NaCl, 50 mM tris-HCl pH 7.5; SAXS at 25 uM protein, protein-to-RNA mass ratio 4.5; cryo-TEM at 75 uM protein, mass ratio 6.0

B1: cowpea chlorotic mottle virus (CCMV) capsid protein (natural protein)
chain: MSTVGTGKLTRAQRRAAARKNKRNTRVVQPVIVEPIASGQGKAIKAWTGYSVSKWTASCAAAEAKVTSAITISLPNELSSERNKQLKVGRVLLWLGLLPSVSGTVKSCVTETQTTAAASFQVALAVADNSKDVVAAMYPEAFKGITLEQLTADLTIYLYSSAALTEGDVIVHLEVEHVRPTFDDSFTPVY
notes: Free capsid protein stored in 0.5 M NaCl, 50 mM tris-HCl pH 7.5; also called CCMV capsid proteins; CCMV coat proteins; source: purified from CCMV virions from infected cowpea leaves (Vigna unguiculata); virions disassembled by dialysis, capsid proteins recovered by ultracentrifugation
Q: Does B1 bind?
A: Result: binds
